{"source": "patent US12296012", "about": "(Pfizer, dated 2025)", "binders": {"B1": {"name": "P4H11 (scFv format) (scFv)", "scFv": "EVQLLESGGGLVQPGGSLRLSCAASGFTFSSYAMNWVRQAPGKGLEWVSSISGGGRSTYYADSVKGRFTISRDNSKNTLYLQMNSLRAEDTAVYYCARDLSPSDVGWGYGFDIWGQGTLVTVSSGGGGSGGGGSGGGGSEIVLTQSPGTLSLSPGERATLSCRASQSVSNTYLAWYQQKPGQAPRLLIYDTSSRATGIPDRFSGSGSGTDFTLTISRLEPEDFAVYYCQQYGSSLTFGQGTKVEIK"}, "B2": {"name": "P9F1 (scFv format) (scFv, not shown: a dimerising Fc or GST; small tags and cut ends)", "scFv": "EVQLLESGGGLVQPGGSLRLSCAASGFIFSSFAMSWVRQAPGKGLEWVSDISGSGASTYYADSVKGRFTISRDNSKNTLYLQMNSLRAEDTAVYYCASASGGSGSYWPYMDPWGQGTLVTVSSGGGGSGGGGSGGGGSQSVLTQPPSASGTPGQRVTISCSGSGSNIGSNYVYWYQQLPGTAPKLLIYRNNQRPSGVPDRFSGSKSGTSASLAISGLRSEDEADYYCAAWDGSLSRPVFGTGTKLTVL"}, "B3": {"name": "P9B5 (scFv format) (scFv, not shown: a dimerising Fc or GST; small tags and cut ends)", "scFv": "EVQLLESGGGLVQPGGSLRLSCAASGFIFASYAMSWVRQAPGKGLEWVSEISSSGGSTTYADSVKGRFTISRDNSKNTLYLQMNSLRAEDTAVYYCARDRVMAGLGYDPFDYWGQGTLVTVSSGGGGSGGGGSGGGGSQSVLTQPPSASGTPGQRVTISCSGSSSNIGSNYVYWYQQLPGTAPKLLIYRNNQRPSGVPDRFSGSKSGTSASLAISGLRSEDEADYYCAAWDDSLSGVVFGGGTKLTVL"}, "B4": {"name": "P3E10 (scFv format) (scFv)", "scFv": "QVQLVQSGAEVKKPGSSVKVSCKASGGTFSSYAIQWVRQAPGQGLEWMGGIVGSWGLANYAQKFQGRVTITTDKSTSTAYMELSSLRSEDTAVYYCATSAFGELASWGQGTLVTVSSGGGGSGGGGSGGGGSEIVLTQSPGTLSLSPGERATLSCRASQSVPSSQLAWYQQKPGQAPRLLIYDASSRATGIPDRFSGSGSGTDFTLTISRLEPEDFAVYYCQQYGSSPLTFGQGTKVEIK"}, "B5": {"name": "P7F9 (scFv format) (scFv)", "scFv": "EVQLLESGGGLVQPGGSLRLSCAASGFTFSSYAMSWVRQAPGKGLEWVSAIGGSGGSTYYADSVKGRFTISRDNSKNTLYLQMNSLRAEDTAMYYCARDYYAFSDPAYGGMDVWGQGTLVTVSSGGGGSGGGGSGGGGSNFMLTQPHSVSESPGKTVTISCTRSSGSIASNYVQWYQQKPGQAPVLVVYDDSDRPSGIPERFSGSNSGNTATLTISRVEAGDEADYYCQVWDSSSDHWVFGGGTKLTVL"}, "B6": {"name": "P1B11 (scFv format) (scFv, not shown: a dimerising Fc or GST; small tags and cut ends)", "scFv": "QVQLVQSGAEVKKPGSSVKVSCKASGGTFRSFDISWVRQAPGQGLEWMGRIIPILGYANYAQKFQGRVTITADESTSTAYMELSSLRSEDTAVYYCASDLGAPWAGYPFDPWGQGTLVTVSSGGGGSGGGGSGGGGSEIVLTQSPGTLSLSPGERATLSCRASQSVSSSELAWYQQKPGQAPRLLIYDASSRATGIPDRFSGSGSGTDFTLTISRLEPEDFAVYYCQQYDSSPLTFGQGTKVEIK"}, "B7": {"name": "P1B4 (scFv format) (scFv, not shown: a dimerising Fc or GST; small tags and cut ends)", "scFv": "QVQLVQSGAEVKKPGSSVKVSCKASGGVFSRYALSWVRQAPGQGLEWMGGIIPMLGFANYAQKFQGRVTITADESTSTAYMELSSLRSEDTAVYYCATLDFGALDYWGQGTLVTVSSGGGGSGGGGSGGGGSEIVLTQSPGTLSLSPGERATLSCRASQSVPNEQLAWYQQKPGQAPRLLIYDASSRATGIPDRFSGSGSGTDFTLTISRLEPEDFAVYYCQQYGSPPLTFGQGTKVEIK"}, "B8": {"name": "P1A5 (scFv format) (scFv)", "scFv": "QVQLVQSGAEVKKPGSSVKVSCKASGGVFSRYALSWVRQAPGQGLEWMGGIIPMLGFANYAQKFQGRVTITADESTSTAYMELSSLRSEDTAVYYCATLDFGALDYWGQGTLVTVSSGGGGSGGGGSGGGGSEIVLTQSPGTLSLSPGERATLSCRASQAVDSSDLAWYQQKPGQAPRLLIYDAYTRPSGIPDRFSGSGSGTDFTLTISRLEPEDFAVYYCQQYGSSPLTFGGGTKLEIK"}, "B9": {"name": "P7H3 (scFv format) (scFv, not shown: a dimerising Fc or GST; small tags and cut ends)", "scFv": "EVQLLESGGGLVQPGGSLRLSCAASGFTFSSYAMHWVRQAPGKGLEWVSAISGSGGSTYYADSVKGRFTISRDNSKNTLYLQMNSLRAEDTAVYYCARGTRWWWGDAFDHWGQGTLVTVSSGGGGSGGGGSGGGGSQSVLTQPPSVSVAPGKTARITCGGNNIGSKSVHWYQQKPGQAPVLVIYYDSDRPSGIPERFSGSNSGNTATLTISRVEAGDEADYYCQVWDSSTAWVFGGGTKLTVL"}, "B10": {"name": "P14G2 (scFv format) (scFv)", "scFv": "EVQLLESGGGLVQPGGSLRLSCAASGFTFSNYVMNWVRQAPGKGLEWVSAISGSGATTYYADSVKGRFTISRDNSKNTLYLQMNSLRAEDTAVYYCVSGLWAGGIWGQGTLVTVSSGGGGSGGGGSGGGGSDIQMTQSPSSLSASVGDRVTITCRASQSISSYLNWYQQKPGKAPKLLIYDASDLQRGVPSRFSGSGSGTDFTLTISSLQPEDFATYYCQQSYNTPWTFGQGTKVEIK"}, "B11": {"name": "P5A3 (scFv format) (scFv, not shown: a dimerising Fc or GST; small tags and cut ends)", "scFv": "QVQLVQSGAEVKKPGSSVKVSCKASGGTFSSYYIGWVRQAPGQGLEWMGGIIPWFGTANYAQKFQGRVTITADKSTNTAYMELSSLRSEDTAVYYCAADHHDSPSGYTSGGFDVWGQGTLVTVSSGGGGSGGGGSGGGGSQSALTQPASVSGSPGQSITISCTGTSSDVGGYNYVSWYQQHPGKAPKLMIYEVSKRPSGVPDRFSGSKSGNTASLTVSGLQAEDEADYYCSSYAGSNTVVFGGGTKLTVL"}, "B12": {"name": "P5F7 (scFv format) (scFv)", "scFv": "EVQLLESGGGLVQPGGSLRLSCAASGFTFSSYAMNWVRQAPGKGLEWVSSISGGGRSTYYADSVKGRFTISRDNSKNTLYLQMNSLRAEDTAVYYCARDLSPSDVGWGYGFDIWGQGTLVTVSSGGGGSGGGGSGGGGSEIVLTQSPATLSLSPGERATLSCRASQSVSSNLAWYQQKPGQAPRLLIYDTFTRATGIPARFSGSGSGTDFTLTISRLEPEDFAVYYCQQYGSSPPTFGQGTRLEIK"}, "B13": {"name": "P4C7 (scFv format) (scFv, not shown: a dimerising Fc or GST; small tags and cut ends)", "scFv": "QVQLVQSGAEVKKPGSSVKVSCKASGGTFSSYTISWVRQAPGQGLEWMGGIIPAFGIANYAQKFQGRVTITADKSTSTAYMELSSLRSEDTAVYYCAKGGSYSLDYFDIWGQGTLVTVSSGGGGSGGGGSGGGGSEIVLTQSPGTLSLSPGERATLSCRASQYVSASLLAWYQQKPGQAPRLLIYGASTRATGIPDRFSGSGSGTDFTLTISRLEPEDFAVYYCQQYARSSTFGQGTKVEIK"}}, "molecular_target": "T1, human FLT3 (human, UniProt P36888 27-541, limits assumed)", "T1 construct": "Soluble analyte hFLT3 in SPR; also called hFLT3; huFlt3", "T1 sequence": "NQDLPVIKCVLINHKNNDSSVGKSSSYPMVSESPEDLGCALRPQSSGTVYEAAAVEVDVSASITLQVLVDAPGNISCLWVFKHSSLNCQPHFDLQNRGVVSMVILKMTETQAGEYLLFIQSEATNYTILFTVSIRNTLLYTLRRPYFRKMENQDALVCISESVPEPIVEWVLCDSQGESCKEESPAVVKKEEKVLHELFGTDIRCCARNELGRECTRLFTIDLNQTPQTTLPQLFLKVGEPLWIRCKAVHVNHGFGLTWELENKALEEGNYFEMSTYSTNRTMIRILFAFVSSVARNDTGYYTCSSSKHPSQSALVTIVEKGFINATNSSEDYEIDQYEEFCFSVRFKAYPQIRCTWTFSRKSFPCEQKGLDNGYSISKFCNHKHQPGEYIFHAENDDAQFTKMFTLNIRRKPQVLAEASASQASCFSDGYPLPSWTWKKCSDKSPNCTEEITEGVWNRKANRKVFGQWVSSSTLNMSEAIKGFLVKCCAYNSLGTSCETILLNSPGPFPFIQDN", "test": "SPR Biacore T200, 37C; scFv format"}
{"binder": "B1", "values": [{"measurement": "Kd", "value": 58.3, "unit": "nM"}, {"measurement": "koff", "value": 0.00933, "unit": "s⁻¹"}, {"measurement": "kon", "value": 160000, "unit": "M⁻¹ s⁻¹"}, {"measurement": "t1/2", "value": 1, "unit": "min"}]}
{"binder": "B2", "values": [{"measurement": "Kd", "value": 126, "unit": "nM"}, {"measurement": "koff", "value": 0.0286, "unit": "s⁻¹"}, {"measurement": "kon", "value": 226000, "unit": "M⁻¹ s⁻¹"}, {"measurement": "t1/2", "value": 0.4, "unit": "min"}]}
{"binder": "B3", "values": [{"measurement": "Kd", "value": 18.1, "unit": "nM"}, {"measurement": "koff", "value": 0.000687, "unit": "s⁻¹"}, {"measurement": "kon", "value": 38000, "unit": "M⁻¹ s⁻¹"}, {"measurement": "t1/2", "value": 16.8, "unit": "min"}]}
{"binder": "B4", "values": [{"measurement": "Kd", "value": 65.1, "unit": "nM"}, {"measurement": "koff", "value": 0.0112, "unit": "s⁻¹"}, {"measurement": "kon", "value": 172000, "unit": "M⁻¹ s⁻¹"}, {"measurement": "t1/2", "value": 1, "unit": "min"}]}
{"binder": "B5", "values": [{"measurement": "Kd", "value": 27.7, "unit": "nM"}, {"measurement": "koff", "value": 0.00241, "unit": "s⁻¹"}, {"measurement": "kon", "value": 87000, "unit": "M⁻¹ s⁻¹"}, {"measurement": "t1/2", "value": 4.8, "unit": "min"}]}
{"binder": "B6", "values": [{"measurement": "Kd", "value": 30.3, "unit": "nM"}, {"measurement": "koff", "value": 0.00257, "unit": "s⁻¹"}, {"measurement": "kon", "value": 84700, "unit": "M⁻¹ s⁻¹"}, {"measurement": "t1/2", "value": 4.5, "unit": "min"}]}
{"binder": "B7", "values": [{"measurement": "Kd", "value": 27.3, "unit": "nM"}, {"measurement": "koff", "value": 0.00327, "unit": "s⁻¹"}, {"measurement": "kon", "value": 120000, "unit": "M⁻¹ s⁻¹"}, {"measurement": "t1/2", "value": 3.5, "unit": "min"}]}
{"binder": "B8", "values": [{"measurement": "Kd", "value": 1.1, "unit": "nM"}, {"measurement": "koff", "value": 0.000292, "unit": "s⁻¹"}, {"measurement": "kon", "value": 259000, "unit": "M⁻¹ s⁻¹"}, {"measurement": "t1/2", "value": 40, "unit": "min"}]}
{"binder": "B9", "values": [{"measurement": "Kd", "value": 9.1, "unit": "nM"}, {"measurement": "koff", "value": 0.00187, "unit": "s⁻¹"}, {"measurement": "kon", "value": 205000, "unit": "M⁻¹ s⁻¹"}, {"measurement": "t1/2", "value": 6.2, "unit": "min"}]}
{"binder": "B10", "values": [{"measurement": "Kd", "value": 3.3, "unit": "nM"}, {"measurement": "koff", "value": 0.000305, "unit": "s⁻¹"}, {"measurement": "kon", "value": 93500, "unit": "M⁻¹ s⁻¹"}, {"measurement": "t1/2", "value": 37.9, "unit": "min"}]}
{"binder": "B11", "values": [{"measurement": "Kd", "value": 216, "unit": "nM"}, {"measurement": "koff", "value": 0.0175, "unit": "s⁻¹"}, {"measurement": "kon", "value": 81000, "unit": "M⁻¹ s⁻¹"}, {"measurement": "t1/2", "value": 0.7, "unit": "min"}]}
{"binder": "B12", "values": [{"measurement": "Kd", "value": 1, "unit": "nM"}, {"measurement": "koff", "value": 0.000197, "unit": "s⁻¹"}, {"measurement": "kon", "value": 189000, "unit": "M⁻¹ s⁻¹"}, {"measurement": "t1/2", "value": 59, "unit": "min"}]}
{"binder": "B13", "values": [{"measurement": "Kd", "value": 13.6, "unit": "nM"}, {"measurement": "koff", "value": 0.00164, "unit": "s⁻¹"}, {"measurement": "kon", "value": 121000, "unit": "M⁻¹ s⁻¹"}, {"measurement": "t1/2", "value": 7, "unit": "min"}]}
